Experimental data taken from the supplement of paper PMC9170038.

System: MS2 coat protein
Assay: apparent KD of MS2 coat protein; designed switch direction (-1 OFF switch, 1 ON switch): 1; higher = weaker reporter binding
Summary of the method: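 Designed RNA switches were transcribed on Illumina chips by stalled E. coli RNA polymerase and titrated with SNAP-549-labelled MS2 coat protein from 0.7 or 1.5 nM, doubling to 3 µM. Step length ran from 0.8–1.5 h at the lowest concentration to 10–20 min at the highest. The apparent KD is the median over clusters for each design, from curve-fitted normalised cluster fluorescence.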

[1] = input ligand: microRNA oligo, concentration not stated
[2] = Eterna round: R95, input ligand: FMN 200 uM
[3] = Eterna round: R95, input ligand: microRNA oligo, concentration not stated
[4] = Eterna round: R95, input ligand: none

| Sequence | apparent KD of MS2 coat protein (input ligand: FMN 200 uM) [nM] | apparent KD of MS2 coat protein [1] [nM] | apparent KD of MS2 coat protein (input ligand: none) [nM] | apparent KD of MS2 coat protein [2] [nM] | apparent KD of MS2 coat protein [3] [nM] | apparent KD of MS2 coat protein [4] [nM] |
| --- | --- | --- | --- | --- | --- | --- |
| CGCCAGAGAGCAGGAUAUGGGCCACGGCCUAAGGGCUGUGAACUCACAUGAGGAUCACCCAUGUCCCAGAAGGGCUCCUGGCUA [Temabeanan] (Eterna round: R96, puzzle: Same State NG 2) | 112 | 1020 | 1180 |  |  |  |
| CGGACUCCCUUAGGAUAUGGGAAAGGAAGUGUACCAGAAGGAAGGGUUCCGAUCCUCCAACAUGAGGAUCACCCAUGUAUGAGG [PowerStrip SSNG 1.3] (Eterna round: R96, puzzle: Same State NG 1) | 16.3 | 21.3 | 22.6 |  |  |  |
| CGGCGCUGUCGAGAGGAUAUGCGGUGAUGGACAUGAGGAUCACCCAUGUUAGCGAUAGCAUUACGGUAGAAGGCUCCACAGCUGU [Soteed Omei mod 12] (puzzle: Same State 2) |  |  |  | 42.5 | 187 | 420 |
| CGGCGUUGUCGAGAGGAUAUGCGGUGAUGGACAUGAGGAUCACCCAUGUUAGCGAUAGCAUUACGGUAGAAGGCUCUACAGCUGC [Soteed Omei mod 7] (puzzle: Same State 2) |  |  |  |  | 42.5 |  |
| CGGGAAAUCGUAGGAUAUCUAGGAUAUGAACGAGGAUCACCCGAGCAGCAUCAGCGCAUCAGAGGAGAGAAGGACGAUGAUGCG [pwkr ssNG2 2F5 2FMN.17] (Eterna round: R96, puzzle: Same State NG 2) | 327 | 273 | 65.7 |  |  |  |
| CGGGUACAUGAGGAUCACCCAUGUGGGAGAGAUGCAGGAUAUGUGGGAAAAGGGAAUGUAACAGAAGGGCAAGGAG [JR_SS!_Sub015] (puzzle: Same State 1) |  |  |  | 220 | 128 | 124 |
| CGGGUACAUGAGGAUCACCCAUGUGGGAGGGAUGCAGGAUAUGUGGGAAAAGGGUAUGAAACAGAAGGGCAAGGAG [JR_SS!_Sub013] (puzzle: Same State 1) |  |  |  | 29.6 | 33.2 | 35.1 |
| CGGGUACAUGAGGAUCACCCAUGUUGGAGUAAUGCAGGAUAUGUGAGACGAGAUGAUAAAACAGAAGGGCAAGGAG [JR_SS!_Sub010] (puzzle: Same State 1) |  |  |  | 50.2 | 70.5 | 123 |
| CGGGUCGUGCUAGGAUAUCUAGGAUAUGGACGAGGAUUACCCGAGCAGCAUUAGCGCACCAGAGGAGAGAAGGAGCGUGAUGCG [pwkr ssNG2 2F5 2FMN.15] (Eterna round: R96, puzzle: Same State NG 2) | 287 | 42.2 | 109 |  |  |  |
| CGUCCAGCCUGAGCUGGACAAAAGCAUGUACAUGAGGAUCACCCAUGUUCAUGUACAAGCUUUUUGCUCGUCUUACG [salish99_208a_r3_093x] (puzzle: Sensor for hsa-mir-208a) |  |  |  | 507 | 16.7 | 617 |
| CGUCCGGCCUGAGCUGGACGGAGGCAUGUACAUGAGGAUCACCCAUGUUCAUGUGCAGGCUUUUUGCUCGUCUUGUG [JL-shm-2.07 JL mod] (Eterna round: R96, puzzle: Sensor for hsa-mir-208a) | 62.8 | 10.6 | 57.8 |  |  |  |
| CGUCCGGCCUGAGCUGGACGGAGGCAUGUACAUGAGGAUCACCCAUGUUCAUGUGCAGGCUUUUUGCUCGUCUUGUG [JL-shm-2.07 JL mod] (puzzle: Sensor for hsa-mir-208a) |  |  |  | 53 | 10.9 | 54.2 |
| CGUCCGGCCUGUGCUGGACGGAAGCAUGUACAUGAGGAUCACCCAUGUUCAUGUGCAGGCUUUUUGCUCGUCUUGUG [salish99_mir208a_modof_jandersonlee_005] (puzzle: Sensor for hsa-mir-208a) |  |  |  | 102 | 13.4 | 117 |
| CGUCCGGCCUGUGCUGGCCGGUUGCAUGUACAUGAGGAUCACCCAUGUUCAUGUGCAGGCUUUUUGCUCGUCUUGUG [salish99_mir208a_013] (puzzle: Sensor for hsa-mir-208a) |  |  |  | 19.4 | 11.2 | 18.9 |
| CGUCGUUUGAUAGGAUAUCGCUUUACAUGAGGAUCACCCAUGUUUACCACGCUGGUUUUUCUUUCCGAGAAGGAUUCUGAUGUU [salish99_SSNG02_r04_023] (Eterna round: R96, puzzle: Same State NG 2) | 35.7 | 25.2 | 35.9 |  |  |  |
| CGUCGUUUGAUAGGAUAUCGCUUUACAUGCGGAUCACCCAUGUUUACCACGCUGGUUUUUCUUUCCGAGAAGGAUUCUGAUGUU [salish99_SSNG02_r04_026] (Eterna round: R96, puzzle: Same State NG 2) | 42 | 10.1 | 134 |  |  |  |

| Sequence | apparent KD of MS2 coat protein (input ligand: FMN 200 uM) [nM] | apparent KD of MS2 coat protein [1] [nM] | apparent KD of MS2 coat protein (input ligand: none) [nM] | apparent KD of MS2 coat protein [2] [nM] | apparent KD of MS2 coat protein [3] [nM] | apparent KD of MS2 coat protein [4] [nM] |
| --- | --- | --- | --- | --- | --- | --- |
| CGUCGUUUGCUAGGAUAUCGCUAUACAUGAGGAUCACCCAUGUUUACCACGCUGGUUUUUCAUACCGAGAAGGAGUCUGAUGUU [salish99_SSNG02_r04_020] (Eterna round: R96, puzzle: Same State NG 2) | 28.8 | 24.8 | 33 |  |  |  |
| CGUGGGUGGCUGGAGGAUAUUCGAGUGGUAACAUGAGGAUCACCCAUGUGUCGCGCGGUACACGAGGAGAAGGCUGGCGGCCGGC (puzzle: Same State 2) |  |  |  | 34.6 | 109 | 256 |
| CUAUCUACAGGUGUCUUUGCUCGUCUUAUACAUGAGGAUCACCCAUGUUAUAGCCCGGUGCUUGCGCUGGGCUGAUU [JL ViennaUCT Tearor mod 6] (puzzle: Sensor for hsa-mir-208a) |  |  |  | 79.8 | 13.2 | 95.7 |
| CUAUCUACAGGUUUCAGUGCUCGUCUUAUACAUGAGGAUCACCCAUGUUAUAGCCCGGUGCUUGCGCUGGGCUGAUU [JL ViennaUCT Tearor mod 3] (puzzle: Sensor for hsa-mir-208a) |  |  |  | 31.4 | 14.8 | 39.3 |
| CUAUGACAUGAGGAUCACCCAUGUGAUAAUUUCAUAGGAUAUACGGCGCCGUUAAGGGCCGUAGAAGGGUGAUCGA [Veonti] (puzzle: Same State 1) |  |  |  | 35.4 | 30.7 | 22.9 |
| CUCAAACAUGAGGAUCACCCAUGUUUUUUCAUGGGAGGAUAUCUAAGUUCAUUAUAUUCAGGAGAAGGCCUAUGUC [× ×•×ª×• ×ž×“×™× ×” × ×—×ª-07] (puzzle: Same State 1) |  |  |  | 159 | 729 | 261 |
| CUGAGAAGUCAAGGAUAUCACGUCGAUUAGACGUGAGAAGGUGAUCAUUACAUGAGGAUCACCCAUGUGUUACAUGGAACUCAG [Brourd's SSNG1/1-A2 mod 7] (Eterna round: R96, puzzle: Same State NG 1) | 672 | 659 | 762 |  |  |  |
| CUGAGCAAUCAAGGAUAUCACGUCGAUUAGACGUGAGAAGGUGAUCAUAACAUGAGGAUCACCCAUGUAUUACAUGAAGCUCAG [SSNG1/1-A2] (Eterna round: R96, puzzle: Same State NG 1) | 975 | 692 | 740 |  |  |  |
| CUGAGCGAUCGAGGAUAUCACGUCGAAUAGACGUGAGAAGGCGAUCAUAACAUGAGGAUCACCCAUGUAUUACAUGAAGCUCAG [SSNG1/4-A1] (Eterna round: R96, puzzle: Same State NG 1) | 13.2 | 10.5 | 17.8 |  |  |  |
| CUGCUACAUGAGGAUCACCCAUGUUGGAGUAAUGCAGGAUAUGUGGGACCAGAAGAUAAAACAGAAGGGCAAGGAG [JR_SS!_Sub007] (puzzle: Same State 1) |  |  |  | 18 | 14.4 | 28.8 |
| CUUCGCGCCGCAGGAUAUGCCGACCCGUGUUGAGCAGAAGGGCGAGACAUGAGGAUCACCCAUGUCUAAAGAGCGCAUCAAUAA [Esedlaedbi] (Eterna round: R96, puzzle: Same State NG 1) | 23.1 | 18.9 | 45.9 |  |  |  |
| CUUCUUCCUUUUACAUGAGGAUCACCCAUGUUUUCAUAUUGAGAGGAUAUCGUAUUUGGAAACAUCGAGAAGGCUCAUUUGUAU [JR_SSNG3_Sub074] (Eterna round: R96, puzzle: Same State NG 3) | 78.6 | 98.6 | 223 |  |  |  |
| GAAGGAUGAGCGUAGGAUAUAGGAGGAGUGACAUGAGGAUCACCCAUGUAGUAGGAGGGAGGGUACUAGAAGGACGAGGAAGAGG [JR_SS2_Sub068] (puzzle: Same State 2) |  |  |  | 67 | 32.2 | 57.4 |
| GACUAUCUAUCUCAGGAUAUCAUGUCAAAGACAUGAGGAUCACCCAUGUACCAGGAAACUGGUUAUGAGAAGGGAGAUAGAUAGG [Mat - Same State 2 - Mod - D43] (puzzle: Same State 2) |  |  |  | 81.1 | 26.3 | 38.8 |
| GACUCUAGAGGAGGAUAUGCAGAGGAUCACCCUGUAGAAGGCCUCAUAAGGAGGAUAUGCAGAGGAUCACCCUGUAGAAGGCCU [pwkr ssNG DX.20] (Eterna round: R96, puzzle: Same State NG 1) | 170 | 85.5 | 272 |  |  |  |
